Measured values taken from the RNAGym collection of RNA variant scans (doi:10.7554/elife.80360).

B1: HDV Ribozyme (parent)
chain: GGCCGGCAUGGUCCCAGCCUCCUCGCUGGCGCCGGCUGGGCAACAUUCCGAGGGGACCGUCCCCUCGGUAAUGGCGAAUGGGACCCA

Variants of: B1
Assay: self-cleavage, relative activity (ratio to wild type); higher = more cleavage; co-transcriptional

Variant | self-cleavage
GGCCGGCAUGGUGCCAGCCUCCUCGCUGGCGCCGGCUGGGCAACAUUCCGUGGGGACCGUCCCCUCGGUAAUGGCGAAUGGGACCCA [C13G A51U] | 0
GGCCGGCAUGGUCCCAGCUUCCUCGCUGGCGCCGGCUGGGCAACAUUCCGAGGGGACAGUCCCCUCGGUAAUGGCGAAUGGGACCCA [C19U C58A] | 0.086
GGCCGGCAUGGUCCCAGCCUCAUCGCUGGCGCCCGCUGGGCAACAUUCCGAGGGGACCGUCCCCUCGGUAAUGGCGAAUGGGACCCA [C22A G34C] | 0.0773
GGCCGGCAUGGUCCCAGCCUCCUCGCUGGCGCCGGCUGGGCAACAUUCCGAGGGGACCGUCCUCUCGGUAAUGGCGAACGGGACCCA [C63U U79C] | 0.411
GGCCGGCAUGGUCCCAGCCUCCUCGCUGGCGCCGGCUGGGCAACAUUCCGAGGGGACCGUCCCCUCGGGAAUGGCGAAAGGGACCCA [U69G U79A] | 0.935
GGCCGGCAUGGUCCCAGCCUCCUCGCUGGUGCCGGCUGGGCAACAUUCCGAGGAGACCGUCCCCUCGGUAAUGGCGAAUGGGACCCA [C30U G54A] | 0.571
GGCCGGCAUGGUCCCAGCCUCAUCGCUGGCGCCGGCUGGGCAACAUUCCGAGGGGACCGUCCCCUCGGUAAUGGCGAAUGGGAGCCA [C22A C84G] | 0.17
GGCCGGCAUGGUCCCAGCCUCCUCGCUGGCGCCGGCUGGGCAACAUCCCGAGGGGACCGUCCCCUCGGUAAUGGCGAAUGAGACCCA [U47C G81A] | 0.332
GGCCGGGAUGGUCCAAGCCUCCUCGCUGGCGCCGGCUGGGCAACAUUCCGAGGGGACCGUCCCCUCGGUAAUGGCGAAUGGGACCCA [C7G C15A] | 0
GGCCGGCAUCGUCCCAGCCUCCUCGCUGGCGCCGGCUGGGCAACAUUCCGAGGGGACCGUCCCCUAGGUAAUGGCGAAUGGGACCCA [G10C C66A] | 0.848
GGCCGGCAUGGUCGCAGCCUCCUCGCUGGCGCCGGCUGGGCAACAUUCCGAGGGGACCGUCCCCUCGGUACUGGCGAAUGGGACCCA [C14G A71C] | 0.208
GGCCGGCAUGGUCCCAGCCUCCUCGCUGGCGCGGGCUGGGCAACAUUCCGAGGGGACCGUCCCCUCGGUACUGGCGAAUGGGACCCA [C33G A71C] | 0.104
GGCCGGCAUGGUCCCAGCCUCCUCGCUGGCGCCGGCUGGGCAACAUUCCGAGGGGACCGUCCCCUCGGUAAUGCCGAAUGGGCCCCA [G74C A83C] | 0.295
GGCCGGCAUGGUCCCAGCCACCUCGCUGGCGCCGGCUGGGCAACAUUCCGAGGGGACCGUCCCCUCGGUAAUGGCGAAUGGGACACA [U20A C85A] | 0.26
GGCCGGCAUGGUCCCAGCCUCCUCGCUGGCGCCGGCUGGGCAACAUUCCGUGGGGACCGUCCCCUCGGUAAUGGCGAAUGGGCCCCA [A51U A83C] | 0.269
GGCCGGCAUGGUCCCAGCCUCCUCGCUGGCGCCGGCUGGGCAACAUUCCGGGCGGACCGUCCCCUCGGUAAUGGCGAAUGGGACCCA [A51G G53C] | 0.665
GGCCGGCAUGGUCCGAGCCUCCUCGCUGGCGCCGGCUGGGAAACAUUCCGAGGGGACCGUCCCCUCGGUAAUGGCGAAUGGGACCCA [C15G C41A] | 0.529
GGCCGGCAUGGUCCCAGCCUCCUCGCUGGCGCCGGCUGGGCAACAUUCCGAGGGGACCGUCCCCUCGAUAAUGUCGAAUGGGACCCA [G68A G74U] | 0.612
GGCCGGCAUGGUCCCAGCCUCCUCGCUCGCGCCGGCUGGGCAACACUCCGAGGGGACCGUCCCCUCGGUAAUGGCGAAUGGGACCCA [G28C U46C] | 0.0723
GGCCGGCAUGGUCCCAGCCUCCUCGCUGGCGCCGGCUGGGCAACACUCCGAGGGGACCGUCCCCUCGGUAAUGGCGAAUGGGAACCA [U46C C84A] | 0.723
GGCCGGCAUGGUCCCAGCCUCCUCGCUAGCGCCGGCUGGGCAACAUACCGAGGGGACCGUCCCCUCGGUAAUGGCGAAUGGGACCCA [G28A U47A] | 0
GGCCGGCAUGGUCCCAGCCUCCUCGCUGGCGCCGGCUGGGCAACAUUCCGAGGGGAGCGUCCCCUCGGUAAUGGCGAAUGGGACCAA [C57G C86A] | 0.656

Variant | self-cleavage
GGCCGGCAUGGUCCCGGCCUCCUCGCUGGCGCCGGCUGGGCAACAUUCCGAUGGGACCGUCCCCUCGGUAAUGGCGAAUGGGACCCA [A16G G52U] | 1.07
GGCCGGCAUGGUCCGAGUCUCCUCGCUGGCGCCGGCUGGGCAACAUUCCGAGGGGACCGUCCCCUCGGUAAUGGCGAAUGGGACCCA [C15G C18U] | 0.0852
GGCCGGCAUGGUCCCAGCCUCCUCGCUGGCGCCGGCUGGGCAACAUUCCGAGGGGAGCGUCCCCUCGGUAAUGGUGAAUGGGACCCA [C57G C75U] | 0.271
GGCCGGCAUGGUCCCAGCCUCCUCGCUGGCGCCGGCUGGGCAACAUUCCGAGGGGACAGUCCCCUCGGUAAUGGAGAAUGGGACCCA [C58A C75A] | 0.201
GGCCGGCAUGGUCCCAGCCUCCCCGCUGGCGCCGGCUGGGCAACAUUCCGAGGGGACCGUCCCCUCGGUAAUGGAGAAUGGGACCCA [U23C C75A] | 0.166
GGCCGGCAUGGUCCCAGCCUCCUCGCUGGCGCCGGCUGGGCAACAUUCCGAGGGGAUCGCCCCCUCGGUAAUGGCGAAUGGGACCCA [C57U U60C] | 0.906
GGCCGGCAUGGUCCCAGCCUCCUCGCUGGCGCCGGCUGGGCAACAUUACGAGGGGACCGUCCACUCGGUAAUGGCGAAUGGGACCCA [C48A C63A] | 0.816
GGCCGGCAUGGUCCCAGCCUCCUCGCUCGCGCCGGCUGGGCAACAUUCCGAGGGGACCGUCCCAUCGGUAAUGGCGAAUGGGACCCA [G28C C64A] | 0.104
GGCCGGCAUGGUCCCAGCCUCCUCGCUGGCGCCGGCAGGGCAACAUUCCGAGGGGACCGUCCCCUCGGUAAUGGCGAAUGCGACCCA [U37A G81C] | 0.227
GGCCGGCAUGGUCCCAGCCUCCUCGCUGGCGCCGGCUGGGCAACAUUCCGAGGGGACCGUCCCCUCCGUAAUGGCGAACGGGACCCA [G67C U79C] | 0.305
GGCCGGUAUGGUCCCAGCCUCCUCGCUGGCGCCGGCUGGGCAACAUUCCGAGGGGACCGUCCCCUCGGUAAUGGUGAAUGGGACCCA [C7U C75U] | 0.0978
GGCCGGCAUGGUCCCAGCCUCCUCGCUGGCGCCGGCUGGGCAACAUUCUGAGGGGACCGUCCCCUCUGUAAUGGCGAAUGGGACCCA [C49U G67U] | 0.859
GGCCGGCAUGGUCCCAGCCUCCUCGCUGGCGCCGGCUGGGCAACAUUCCGAGGGGACCGUCCCCUCGGUAAUGGCGAAUAGGACUCA [G80A C85U] | 0.339
GGCCGGCAUGGUCCCAGCCUCCUCGCUGGCGCCGGCUGGGCAACAUUCCGAGGGGAUCGUCCCUUCGGUAAUGGCGAAUGGGACCCA [C57U C64U] | 0.845
GGCCGGCAUGGUCCCAGCUUCCACGCUGGCGCCGGCUGGGCAACAUUCCGAGGGGACCGUCCCCUCGGUAAUGGCGAAUGGGACCCA [C19U U23A] | 0.129
AGCCGGCAUGGUCCCAGCCUCCUCGCUGGCGCCGGCUGGGCAACAUUCCGAGGGAACCGUCCCCUCGGUAAUGGCGAAUGGGACCCA [G1A G55A] | 0.0519
GGCCGGCAUGGUCCCGGCCUCCGCGCUGGCGCCGGCUGGGCAACAUUCCGAGGGGACCGUCCCCUCGGUAAUGGCGAAUGGGACCCA [A16G U23G] | 1.16
GGCCGGCAUGGUCCCAGCCUCCUCGCUGGCGCCGGCUGGGCCACAUUCCGAGGGGACCGUCCCCUCGGUAAGGGCGAAUGGGACCCA [A42C U72G] | 0.256
GGCCGGCAUGGUCCCACCCUCCUCGCUGGCGCCGGCUGGGCAACAUUCCGAGGGGACCGUCCCCUCGGUAAUGGCGAAAGGGACCCA [G17C U79A] | 0.26
GGCCGGCAUGGUCCCAGCCUCCUCGCUGGCGCCGGCUGGGCAAAAUUCCGAGGGGACCGUCCCCUCGGUAAUGGCGAAUCGGACCCA [C44A G80C] | 0.109
GGCCGGCUUGGUCCCAGCCUCCUCGCUGGCGCCGGCUGGGCAACAUUCCGAGGGGACCGUCCCCUCGGUAAUGGCGAAUGGGACCCA [A8U] | 0.863
GGCCGGCAUCGUCCCAGCCUCCUCGCUGGCGCCGGCUGGGCAACAUUCCGAGGGGACCGUCCCCUCGGUAUUGGCGAAUGGGACCCA [G10C A71U] | 0.767

Variant | self-cleavage
GGCCGGCAUGGUCCCAGCCUCCUCGCUGGCGCCGGCUGGGCAACAUACCGAGGGGACCGUGCCCUCGGUAAUGGCGAAUGGGACCCA [U47A C61G] | 0.639
GGCCGGCAUUGUCCCAGCCUCCUCGCUGGCGCCGGCUGGGCAACAUUCCCAGGGGACCGUCCCCUCGGUAAUGGCGAAUGGGACCCA [G10U G50C] | 0.817
GGCCGGCAUGGUCCAAGCCUCCUCGCUGGCGCCGGCUGGGCAACAUUCCGAGGGGACCGUCCCCUCGGUAAUGGCGAAUGUGACCCA [C15A G81U] | 0.232
GGCCGGCAUGGUCCCAGCCUCCGCGCUGGAGCCGGCUGGGCAACAUUCCGAGGGGACCGUCCCCUCGGUAAUGGCGAAUGGGACCCA [U23G C30A] | 0.145
GGCGGGCAUGGUCCCAGCCUCCUCGCUGGCGCCGGCUGGGCAACAUUCCGAGGGGACCGUCCCCUCGGUAAUGGCGAACGGGACCCA [C4G U79C] | 0.13
GGCCGGCAUGGUCCCAGCCUCCUCGCUGGCGCCGGCUGGGCAACAUUCCGAGGGGACCGGCCCCUCGGUAAUGGCGAAUGGGACUCA [U60G C85U] | 1.15
GGCCGGCAUGGUCCCAGCCUCCUCGCUGGGGCCGGCUGGGCAACAUUCCGAGGGGUCCGUCCCCUCGGUAAUGGCGAAUGGGACCCA [C30G A56U] | 0.116
GGCCGGCAUGGUCCCAGCCUCCUCGCUGGCGCCCGCUGGGCAACAUUCCGAGGGGACCGUCCCCUCGGUAAUGGCGCAUGGGACCCA [G34C A77C] | 0.17
GGCCGGCAUGGUCCCAGCCUCCUCGCUGGCGCCGGCUGGGCAACAUUCCGAGUGGACCGUCCCCUCGGGAAUGGCGAAUGGGACCCA [G53U U69G] | 0.964
GGCCGGCAUGGUCUCAGCCUCCUCGCUGGCGCCGGCUGGGCAACAUUCCGAGGGGACCGUCCCCUCGGUAAUGGCGAAUGGGAGCCA [C14U C84G] | 0.914
GGCCGGCAUGGUCCAAGCCUCCUCGCUGGCGCCGGCUGGGCAACAUUCCAAGGGGACCGUCCCCUCGGUAAUGGCGAAUGGGACCCA [C15A G50A] | 0.527
GGCCGGCAUGGUCCCAGCCUCGUCGCUGGCGCCGGCUGGGCAACAUUCCGAGGGGAGCGUCCCCUCGGUAAUGGCGAAUGGGACCCA [C22G C57G] | 0.219
UGCCGGCAUGGUCCCAGCCUCCUUGCUGGCGCCGGCUGGGCAACAUUCCGAGGGGACCGUCCCCUCGGUAAUGGCGAAUGGGACCCA [G1U C24U] | 0.409
GGCCGGGAUGGUCCCAGCCUCCUCGCUGGCGCCGGCUGGGCAACAUUCCGAGGGGACCGUCCCCUCGGUAAUCGCGAAUGGGACCCA [C7G G73C] | 0
GGCCGGCAUGGUCCCAGCCUCCUCGCUGGCGCCUGCUGGGCAACAUUCCGAGGGGACCGUCCACUCGGUAAUGGCGAAUGGGACCCA [G34U C63A] | 0.164
GGCCGGCAUGGUCCCAGCCUCCUCGCUGGCGCCGGCUGGGAAACAUUCCGAGGGGACCGUCCCCUCGGUAAUGGCGAAUGGGACCCU [C41A A87U] | 0.866
GGCCGGCAUGGUCCCAGCCUCCUCGCUGGCGCCGGCUGGGCAAGAUUCCGAGGGGAUCGUCCCCUCGGUAAUGGCGAAUGGGACCCA [C44G C57U] | 0.745
GGCCGGCAUGGUCCCAGCCUCCUCGCUGGCGCCAGCUGGGCAACAUUCCGAGGGGACCGUCCCCUCGGUAAUGGCGAAUGGGACCGA [G34A C86G] | 0.121
GGCCGGCAUAUUCCCAGCCUCCUCGCUGGCGCCGGCUGGGCAACAUUCCGAGGGGACCGUCCCCUCGGUAAUGGCGAAUGGGACCCA [G10A G11U] | 0.095
GGCCUGCAUGGUCCCAGCCUCCUCGCUGGCGCCGGCUGGGCAACAUUCCGAGGGGACCCUCCCCUCGGUAAUGGCGAAUGGGACCCA [G5U G59C] | 0.415
